Data reported in patent publication US20230218710A1 (COHBAR, published 2023).
Square brackets hold non-standard residues; d marks the D form. Primed or numbered codes have the meaning given here. Ends that are not written are not given here. PEG12″ = polyethylene glycol with 12 units (PEG-12)

T1: Apelin Receptor (APJ) stably overexpressed in CHO-K1 AGTRL1 Gi cells (UniProt P35414 1-380, limits assumed)
T1 sequence (looked up): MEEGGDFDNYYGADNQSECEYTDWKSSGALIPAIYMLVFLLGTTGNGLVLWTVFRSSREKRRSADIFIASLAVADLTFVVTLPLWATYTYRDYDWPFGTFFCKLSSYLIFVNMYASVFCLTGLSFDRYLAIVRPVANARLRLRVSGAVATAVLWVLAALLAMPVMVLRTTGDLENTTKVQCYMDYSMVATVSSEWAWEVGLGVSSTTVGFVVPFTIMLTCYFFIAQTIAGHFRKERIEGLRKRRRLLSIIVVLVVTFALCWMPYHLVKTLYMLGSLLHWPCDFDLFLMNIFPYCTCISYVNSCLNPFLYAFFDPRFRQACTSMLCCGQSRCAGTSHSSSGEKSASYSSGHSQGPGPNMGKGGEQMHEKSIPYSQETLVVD


Molecular target: T1, Apelin Receptor (APJ) stably …
Experiment: cell-based or functional assay

Binder | inhibition of forskolin-induced cAMP, Percent of Pyr-Apelin-13 Control Activity (10 µM peptide) [%]
RMMGMVFQSLCG[dA] [SEQ ID NO: 54] | 20
MMGMV [SEQ ID NO: 44] | 5
RRMMGMVAQCLEG[dA] [SEQ ID NO: 30] | 31
RMMGMVFQSL [SEQ ID NO: 53] | 6
RXLLGLVFQSLCGA ((Aib) = aminoisobutyric acid at position 2; C-terminal (dA) = D-alanine) [SEQ ID NO: 35] | 8
RMMGMVFQS [SEQ ID NO: 52] | 15
Ac-RRMMGMVFQSLCG[dA] [SEQ ID NO: 61] | 1
RRMMGMV [SEQ ID NO: 56] | -2
RRMVYQCLCG[dA] (cysteine pairing not given here) [SEQ ID NO: 22] | 62
RRLLGLVEQSLCG[dA] [SEQ ID NO: 40] | 19
RRXXGXVFQCLCGA ((Nle) = norleucine at positions 3, 4 and 6; C-terminal (dA) = D-alanine) [SEQ ID NO: 18] | 30
RRLLGLVFQSLCG[dA] [SEQ ID NO: 33] | 27
RRMMGMVFQSLSG[dA] [SEQ ID NO: 17] | 26
MMGMVF [SEQ ID NO: 45] | 10
RRMMGMVEQSLCG[dA] [SEQ ID NO: 38] | 12
RRMMGM [SEQ ID NO: 55] | -7
RRLLGLVFQSLEG[dA] [SEQ ID NO: 41] | 15
RXMMGMVFQSLCGA ((Aib) = aminoisobutyric acid at position 2; C-terminal (dA) = D-alanine) [SEQ ID NO: 34] | 61
RRMVFQCLEG[dA] [SEQ ID NO: 23] | -4
RRMMGMVF [SEQ ID NO: 57] | -1

Binder | inhibition of forskolin-induced cAMP, Percent of Pyr-Apelin-13 Control Activity (10 µM peptide) [%]
KRRMMGMVFQCLCGA ((PEG12) at the N-terminal K; C-terminal (dA) = D-alanine) [SEQ ID NO: 20] | 37
RRMMGMVFQ [SEQ ID NO: 58] | 5
RRMMGMVFQSL [SEQ ID NO: 60] | 16
RRMMGMVYQCLEG[dA] [SEQ ID NO: 29] | 21
RREMVYQCLCG[dA] (cysteine pairing not given here) [SEQ ID NO: 25] | 3
RRMMGMVFQCLCG[dA]K(PEG12″) (cysteine pairing not given here) [SEQ ID NO: 21] | 34
RRMMGMVFQCLCG[dA] (cysteine pairing not given here) [SEQ ID NO: 8] | 64
RRMGYQCLEG[dA] [SEQ ID NO: 28] | 3
RRMMGMVFQSLEG[dA] [SEQ ID NO: 39] | -13
RRMEVYQCLCG[dA] (cysteine pairing not given here; also: places D-Ala at position 13) [SEQ ID NO: 31] | 2
RREMVYQCLEG[dA] [SEQ ID NO: 26] | 29
RRMEVYQCLEG[dA] [SEQ ID NO: 32] | 4
Ac-RRMMGMVFQSLCG[dA]-NH2 [SEQ ID NO: 63] | 21
RRMVFQCLCG[dA] (cysteine pairing not given here) [SEQ ID NO: 19] | 27
RRMVYQCLEG[dA] [SEQ ID NO: 24] | 16
RRMMGMVYQCLCG[dA] (cysteine pairing not given here) [SEQ ID NO: 10] | 70
RRMMGMVFQS [SEQ ID NO: 59] | -2
RRMMGMVFQSLCG[dA]-NH2 [SEQ ID NO: 62] | 27
RRMAYQCLEG[dA] [SEQ ID NO: 27] | 9

Molecular target: ProLink tagged human APJ (Apelin Receptor) in CHO-K1 AGTRL1 β-Arrestin cells (human, UniProt P35414 1-380)
Experiment: cell-based or functional assay

Binder | β-Arrestin recruitment, Percent of Apelin-13 Control Activity (10 µM peptide) [%]
RMMGMVFQSLCG[dA] [SEQ ID NO: 54] | 1
MMGMV [SEQ ID NO: 44] | 0
RRMMGMVAQCLEG[dA] [SEQ ID NO: 30] | -1
RMMGMVFQSL [SEQ ID NO: 53] | 1
RXLLGLVFQSLCGA ((Aib) = aminoisobutyric acid at position 2; C-terminal (dA) = D-alanine) [SEQ ID NO: 35] | 17
RMMGMVFQS [SEQ ID NO: 52] | 0
Ac-RRMMGMVFQSLCG[dA] [SEQ ID NO: 61] | 5
RRMMGMV [SEQ ID NO: 56] | 0
RRMVYQCLCG[dA] (cysteine pairing not given here) [SEQ ID NO: 22] | 0
RRLLGLVEQSLCG[dA] [SEQ ID NO: 40] | 0
RRXXGXVFQCLCGA ((Nle) = norleucine at positions 3, 4 and 6; C-terminal (dA) = D-alanine) [SEQ ID NO: 18] | 1
RRLLGLVFQSLCG[dA] [SEQ ID NO: 33] | 9
RRMMGMVFQSLSG[dA] [SEQ ID NO: 17] | 10
MMGMVF [SEQ ID NO: 45] | 0
RRMMGMVEQSLCG[dA] [SEQ ID NO: 38] | 0
RRMMGM [SEQ ID NO: 55] | 1
RRLLGLVFQSLEG[dA] [SEQ ID NO: 41] | 0
RXMMGMVFQSLCGA ((Aib) = aminoisobutyric acid at position 2; C-terminal (dA) = D-alanine) [SEQ ID NO: 34] | 8
RRMVFQCLEG[dA] [SEQ ID NO: 23] | 0
RRMMGMVF [SEQ ID NO: 57] | 0

Binder | β-Arrestin recruitment, Percent of Apelin-13 Control Activity (10 µM peptide) [%]
KRRMMGMVFQCLCGA ((PEG12) at the N-terminal K; C-terminal (dA) = D-alanine) [SEQ ID NO: 20] | 1
RRMMGMVFQ [SEQ ID NO: 58] | 0
RRMMGMVFQSL [SEQ ID NO: 60] | 0
RRMMGMVFQCLSG[dA] [SEQ ID NO: 16] | 0
RRMMGMVYQCLEG[dA] [SEQ ID NO: 29] | 0
RREMVYQCLCG[dA] (cysteine pairing not given here) [SEQ ID NO: 25] | -1
RRMMGMVFQCLCG[dA]K(PEG12″) (cysteine pairing not given here) [SEQ ID NO: 21] | 1
RRMMGMVFQCLCG[dA] (cysteine pairing not given here) [SEQ ID NO: 8] | 17
RRMGYQCLEG[dA] [SEQ ID NO: 28] | -1
RRMMGMVFQSLEG[dA] [SEQ ID NO: 39] | 0
RRMEVYQCLCG[dA] (cysteine pairing not given here; also: places D-Ala at position 13) [SEQ ID NO: 31] | 0
RREMVYQCLEG[dA] [SEQ ID NO: 26] | 0
RRMEVYQCLEG[dA] [SEQ ID NO: 32] | 0
Ac-RRMMGMVFQSLCG[dA]-NH2 [SEQ ID NO: 63] | 9
RRMVFQCLCG[dA] (cysteine pairing not given here) [SEQ ID NO: 19] | 1
RRMVYQCLEG[dA] [SEQ ID NO: 24] | -1
RRMMGMVYQCLCG[dA] (cysteine pairing not given here) [SEQ ID NO: 10] | 3
RRMMGMVFQS [SEQ ID NO: 59] | 0
RRMMGMVFQSLCG[dA]-NH2 [SEQ ID NO: 62] | 2
RRMAYQCLEG[dA] [SEQ ID NO: 27] | -1
